The text below walks through data of patent US20050239704, “Compositions and methods for affecting virulence determinants in bacteria” (published 2005).

For the series, the target named is SarR (Staphylococcus aureus, UniProt Q2FEJ8 SEQ:1-115). The series can be described thus: footprint; protected region nt 81-108 within the 109-bp fragment. The note with it: tags: untagged, pET11b expressed in E. coli BL21(DE3)pLysS; chain copies: 2 (inferred).
Sequence of SarR (Q2FEJ8 whole entry, the tested form may be a part): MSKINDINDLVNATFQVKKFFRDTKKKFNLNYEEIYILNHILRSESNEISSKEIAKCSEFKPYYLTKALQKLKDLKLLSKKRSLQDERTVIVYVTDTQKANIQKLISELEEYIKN

B1: sarA P2 protected region (nt 81-108) (dsDNA)
DNA 1: TAAATTAATGTTATTTTTTAATAATTTA
DNA 2: TAAATTATTAAAAAATAACATTAATTTA
As to B1, the binding result is “binds”.
